T1: Bzz1-2, P38822
T1 sequence (P38822 568-633, looked up): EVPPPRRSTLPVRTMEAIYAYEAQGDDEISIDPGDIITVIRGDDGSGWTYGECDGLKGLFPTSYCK

T2: Sla1-2, P32790
T2 sequence (P32790 60-140, looked up): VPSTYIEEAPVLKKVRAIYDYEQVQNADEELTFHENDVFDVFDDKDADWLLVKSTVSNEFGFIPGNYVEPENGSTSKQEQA

T3: Fus1, P11710
T3 sequence (P11710 432-512, looked up): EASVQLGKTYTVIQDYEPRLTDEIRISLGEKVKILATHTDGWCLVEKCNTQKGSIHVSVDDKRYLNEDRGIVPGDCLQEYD

T4: Lsb4, P32793
T4 sequence (P32793 402-468, looked up): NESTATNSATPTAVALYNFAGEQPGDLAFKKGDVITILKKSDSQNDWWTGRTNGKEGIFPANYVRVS

T5: Boi2, P39969
T5 sequence (P39969 32-116, looked up): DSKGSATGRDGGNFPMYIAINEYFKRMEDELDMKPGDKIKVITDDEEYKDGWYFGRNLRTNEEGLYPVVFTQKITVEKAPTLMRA

T6: Nbp2, Q12163
T6 sequence (Q12163 103-180, looked up): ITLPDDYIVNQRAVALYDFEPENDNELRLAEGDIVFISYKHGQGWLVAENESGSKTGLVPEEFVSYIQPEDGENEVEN

T7: Pin3, Q06449
T7 sequence (Q06449 53-122, looked up): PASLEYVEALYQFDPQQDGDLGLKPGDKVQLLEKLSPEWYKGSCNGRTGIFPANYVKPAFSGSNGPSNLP

T8: Cdc25, P04821
T8 sequence (P04821 50-136, looked up): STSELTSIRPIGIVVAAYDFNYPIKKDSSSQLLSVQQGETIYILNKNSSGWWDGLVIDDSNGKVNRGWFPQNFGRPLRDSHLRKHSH

T9: Hse1, P38753
T9 sequence (P38753 208-285, looked up): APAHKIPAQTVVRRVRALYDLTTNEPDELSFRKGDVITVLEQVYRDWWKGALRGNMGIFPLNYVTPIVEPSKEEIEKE

T10: Boi1, P38041
T10 sequence (P38041 1-86, looked up): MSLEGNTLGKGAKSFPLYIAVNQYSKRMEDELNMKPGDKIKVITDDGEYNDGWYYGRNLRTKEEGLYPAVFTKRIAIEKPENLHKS

T11: Lsb3, P43603
T11 sequence (P43603 385-451, looked up): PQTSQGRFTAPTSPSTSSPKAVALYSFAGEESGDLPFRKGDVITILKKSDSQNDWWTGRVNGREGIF

T12: Abp1, P15891
T12 sequence (P15891 535-592, looked up): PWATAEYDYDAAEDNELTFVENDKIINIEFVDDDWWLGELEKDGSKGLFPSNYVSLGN

T13: Bzz1-1, P38822
T13 sequence (P38822 478-572, looked up): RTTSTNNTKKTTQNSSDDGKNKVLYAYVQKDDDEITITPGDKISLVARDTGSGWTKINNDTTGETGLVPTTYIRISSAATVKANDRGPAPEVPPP

T14: Hof1, Q05080
T14 sequence (Q05080 590-669, looked up): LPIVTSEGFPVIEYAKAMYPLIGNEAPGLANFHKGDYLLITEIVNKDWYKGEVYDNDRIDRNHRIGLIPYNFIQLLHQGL

T15: Lsb1, P53281
T15 sequence (P53281 45-122, looked up): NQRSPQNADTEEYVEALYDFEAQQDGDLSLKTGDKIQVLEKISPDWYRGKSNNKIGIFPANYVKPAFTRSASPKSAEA

T16: Sla1-3, P32790
T16 sequence (P32790 344-424, looked up): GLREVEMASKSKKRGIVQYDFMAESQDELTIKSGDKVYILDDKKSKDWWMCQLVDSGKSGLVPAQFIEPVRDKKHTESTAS

T17: Bbc1, P47068
T17 sequence (P47068 1-78, looked up): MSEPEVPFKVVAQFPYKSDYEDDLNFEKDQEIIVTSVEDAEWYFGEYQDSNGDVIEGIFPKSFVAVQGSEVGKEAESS

T18: Cyk3, Q07533
T18 sequence (Q07533 1-83, looked up): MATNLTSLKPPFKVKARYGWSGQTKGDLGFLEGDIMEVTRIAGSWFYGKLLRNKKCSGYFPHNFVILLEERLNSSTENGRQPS

T19: Myo5, Q04439
T19 sequence (Q04439 1072-1160, looked up): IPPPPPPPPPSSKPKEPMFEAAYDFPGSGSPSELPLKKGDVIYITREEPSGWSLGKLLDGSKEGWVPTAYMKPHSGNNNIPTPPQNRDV

T20: Bud14, P27637
T20 sequence (P27637 247-328, looked up): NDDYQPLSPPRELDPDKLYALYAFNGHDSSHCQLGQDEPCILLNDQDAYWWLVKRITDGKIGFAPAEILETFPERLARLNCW

T21: Pex13, P80667
T21 sequence (P80667 295-386, looked up): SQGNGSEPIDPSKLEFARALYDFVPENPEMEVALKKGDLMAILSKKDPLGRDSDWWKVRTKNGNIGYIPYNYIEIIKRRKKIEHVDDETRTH


Tests used:
Experiment in all cases: SPOT array
Bzz1-2, P38822 = target: T1, Bzz1-2, P38822; settings: median of control spots 4538
Sla1-2, P32790 = target: T2, Sla1-2, P32790; settings: median of control spots 712
Fus1, P11710 = target: T3, Fus1, P11710; settings: median of control spots 1200
Lsb4, P32793 = target: T4, Lsb4, P32793; settings: median of control spots 397
Bem1-2, P29366 = settings: median of control spots 4347
Boi2, P39969 = target: T5, Boi2, P39969; settings: median of control spots 1161
Nbp2, Q12163 = target: T6, Nbp2, Q12163; settings: median of control spots 357
Bem1-1, P29366 = settings: median of control spots 4282
Pin3, Q06449 = target: T7, Pin3, Q06449; settings: median of control spots 2171
Sho1, P40073 = settings: median of control spots 1148
Cdc25, P04821 = target: T8, Cdc25, P04821; settings: median of control spots 969
GST = settings: median of control spots 978
Hse1, P38753 = target: T9, Hse1, P38753; settings: median of control spots 1727
Boi1, P38041 = target: T10, Boi1, P38041; settings: median of control spots 1162
Lsb3, P43603 = target: T11, Lsb3, P43603; settings: median of control spots 406
Abp1, P15891 = target: T12, Abp1, P15891; settings: median of control spots 935
Bzz1-1, P38822 = target: T13, Bzz1-1, P38822; settings: median of control spots 4446
Hof1, Q05080 = target: T14, Hof1, Q05080; settings: median of control spots 4086
Lsb1, P53281 = target: T15, Lsb1, P53281; settings: median of control spots 388
Sla1-3, P32790 = target: T16, Sla1-3, P32790; settings: median of control spots 5475
Rvs167, P39743 = settings: median of control spots 2707
Myo3, P36006 = settings: median of control spots 468
Bbc1, P47068 = target: T17, Bbc1, P47068; settings: median of control spots 796
Cyk3, Q07533 = target: T18, Cyk3, Q07533; settings: median of control spots 1451
Myo5, Q04439 = target: T19, Myo5, Q04439; settings: median of control spots 471
Bud14, P27637 = target: T20, Bud14, P27637; settings: median of control spots 956
Pex13, P80667 = target: T21, Pex13, P80667; settings: median of control spots 1341

Rvs167, P39743, sequence (P39743 419-482): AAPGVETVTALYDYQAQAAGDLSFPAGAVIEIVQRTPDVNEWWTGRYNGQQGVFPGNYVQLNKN
Bem1-1, P29366, sequence (P29366 55-141): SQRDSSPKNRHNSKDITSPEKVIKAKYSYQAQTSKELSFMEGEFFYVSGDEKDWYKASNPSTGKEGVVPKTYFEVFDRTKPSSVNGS
Bem1-2, P29366, sequence (P29366 139-227): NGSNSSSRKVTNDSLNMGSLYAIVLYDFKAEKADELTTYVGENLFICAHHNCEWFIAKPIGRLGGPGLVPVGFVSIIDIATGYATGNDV
Sho1, P40073, sequence (P40073 287-367): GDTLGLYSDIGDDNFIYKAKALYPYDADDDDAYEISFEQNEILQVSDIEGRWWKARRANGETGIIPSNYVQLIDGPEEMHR

Row | Binder | SPOT intensity (Bzz1-2, P38822) | SPOT intensity (Sla1-2, P32790) | SPOT intensity (Fus1, P11710) | SPOT intensity (Lsb4, P32793) | SPOT intensity (Bem1-2, P29366) | SPOT intensity (Boi2, P39969) | SPOT intensity (Nbp2, Q12163) | SPOT intensity (Bem1-1, P29366) | SPOT intensity (Pin3, Q06449) | SPOT intensity (Sho1, P40073) | SPOT intensity (Cdc25, P04821) | SPOT intensity (GST) | SPOT intensity (Hse1, P38753) | SPOT intensity (Boi1, P38041) | SPOT intensity (Lsb3, P43603) | SPOT intensity (Abp1, P15891) | SPOT intensity (Bzz1-1, P38822) | SPOT intensity (Hof1, Q05080) | SPOT intensity (Lsb1, P53281) | SPOT intensity (Sla1-3, P32790) | also measured
1 | FPPKRKPLLRPQRSD | 28 | 1 | 6 | 81 | 19 | 1 | 9 | 1 | 19 | 154 | 27 | 2 | 51 | 6 | 48 | 232 | 0 | 4 | 69 | 25 | SPOT intensity (Rvs167, P39743): 25; SPOT intensity (Myo3, P36006): 30; SPOT intensity (Bbc1, P47068): 266; SPOT intensity (Cyk3, Q07533): 3; SPOT intensity (Myo5, Q04439): 0; SPOT intensity (Bud14, P27637): 19; SPOT intensity (Pex13, P80667): 16
2 | TKPTPPPKPSHLKPK | 0 | 0 | 2 | 5 | 0 | 0 | 1 | 0 | 0 | 199 | 2 | 0 | 11 | 0 | 75 | 631 | 0 | 3 | 0 | 1 | SPOT intensity (Rvs167, P39743): 0; SPOT intensity (Myo3, P36006): 0; SPOT intensity (Bbc1, P47068): 1; SPOT intensity (Cyk3, Q07533): 1; SPOT intensity (Myo5, Q04439): 0; SPOT intensity (Bud14, P27637): 1; SPOT intensity (Pex13, P80667): 266
3 | DKKTKPTPPPKPSHL | 0 | 1 | 0 | 0 | 1 | 2 | 0 | 0 | 0 | 115 | 1 | 0 | 4 | 3 | 24 | 410 | 1 | 3 | 0 | 0 | SPOT intensity (Rvs167, P39743): 0; SPOT intensity (Myo3, P36006): 0; SPOT intensity (Bbc1, P47068): 0; SPOT intensity (Cyk3, Q07533): 0; SPOT intensity (Myo5, Q04439): 0; SPOT intensity (Bud14, P27637): 1; SPOT intensity (Pex13, P80667): 4
4 | KDKKTKPTPPPKPSH | 1 | 1 | 4 | 0 | 5 | 0 | 2 | 1 | 0 | 50 | 2 | 3 | 2 | 0 | 2 | 190 | 0 | 0 | 0 | 0 | SPOT intensity (Rvs167, P39743): 1; SPOT intensity (Myo3, P36006): 0; SPOT intensity (Bbc1, P47068): 0; SPOT intensity (Cyk3, Q07533): 2; SPOT intensity (Myo5, Q04439): 0; SPOT intensity (Bud14, P27637): 4; SPOT intensity (Pex13, P80667): 0
5 | AKDLIVPRRPEWNEG | 2660 | 550 | 1230 | 768 | 5580 | 1640 | 1390 | 3920 | 694 | 1570 | 347 | 446 | 1130 | 1450 | 591 | 766 | 2630 | 5260 | 636 | 2730 | SPOT intensity (Rvs167, P39743): 1950; SPOT intensity (Myo3, P36006): 461; SPOT intensity (Bbc1, P47068): 1050; SPOT intensity (Cyk3, Q07533): 2720; SPOT intensity (Myo5, Q04439): 624; SPOT intensity (Bud14, P27637): 480; SPOT intensity (Pex13, P80667): 567
6 | GSKSGPPPRPKKPST | 11 | 1 | 0 | 2 | 2 | 0 | 0 | 1 | 2 | 16 | 0 | 2 | 38 | 4 | 55 | 285 | 3 | 0 | 0 | 4 | SPOT intensity (Rvs167, P39743): 1; SPOT intensity (Myo3, P36006): 3; SPOT intensity (Bbc1, P47068): 13; SPOT intensity (Cyk3, Q07533): 3; SPOT intensity (Myo5, Q04439): 0; SPOT intensity (Bud14, P27637): 7; SPOT intensity (Pex13, P80667): 23
